The values that follow come from patent US20250250350A1.

Experiment [1] has as its target MSLN-Bio (human) (UniProt Q13421). In words: flow cytometry, lentivirally transduced primary T cells, stained with ALPG-AF647 (PrimeR axis) and MSLN-Bio / streptavidin-PE (CAR axis). A general note: In flow cytometry, cells or beads pass a laser one at a time.
The target of experiment [2] is ALPG-AF647 (human) (UniProt P10696). The experiment in a line: flow cytometry, lentivirally transduced primary T cells without PrimeR, stained with ALPG-AF647 (PrimeR axis) and MSLN-Bio / streptavidin-PE (CAR axis).
Sequence of ALPG-AF647 (human) (P10696 20-503 limits assumed): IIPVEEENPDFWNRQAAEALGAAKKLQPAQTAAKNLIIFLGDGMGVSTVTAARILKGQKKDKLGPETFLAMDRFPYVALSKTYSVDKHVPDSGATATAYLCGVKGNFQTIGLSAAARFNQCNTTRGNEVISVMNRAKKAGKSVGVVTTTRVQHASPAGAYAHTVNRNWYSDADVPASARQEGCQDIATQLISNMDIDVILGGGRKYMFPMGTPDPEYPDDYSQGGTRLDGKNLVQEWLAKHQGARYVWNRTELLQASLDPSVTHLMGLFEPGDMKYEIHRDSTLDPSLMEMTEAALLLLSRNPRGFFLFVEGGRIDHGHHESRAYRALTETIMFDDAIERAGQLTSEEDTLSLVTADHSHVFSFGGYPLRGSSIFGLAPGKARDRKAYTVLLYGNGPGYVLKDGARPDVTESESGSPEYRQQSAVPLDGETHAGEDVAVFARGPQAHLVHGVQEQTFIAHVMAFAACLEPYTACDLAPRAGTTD

Sequence of MSLN-Bio (human) (Q13421 other isoform, or with tags, fused parts or gaps limits assumed): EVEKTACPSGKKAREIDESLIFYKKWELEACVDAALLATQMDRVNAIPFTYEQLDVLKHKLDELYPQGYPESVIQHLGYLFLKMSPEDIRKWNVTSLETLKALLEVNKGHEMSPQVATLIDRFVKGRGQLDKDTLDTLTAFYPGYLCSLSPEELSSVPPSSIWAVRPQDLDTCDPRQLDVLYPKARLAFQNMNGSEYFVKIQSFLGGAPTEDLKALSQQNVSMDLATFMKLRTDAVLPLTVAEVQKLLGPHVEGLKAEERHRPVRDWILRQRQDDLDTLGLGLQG

In experiment [1], SS1 CAR returned a % of cells PrimeR+ CAR+ (upper right quadrant) of 0.59% and a % of cells PrimeR- CAR+ (upper left quadrant) of 59.2%. Also, in experiment [2], the % of cells PrimeR+ CAR+ (upper right quadrant) was determined as 0.59% and the % of cells PrimeR+ CAR- (lower right quadrant) amounted to 0.079%.
